Results published in patent publication US20250313626A1 (HARBOUR BIOMED SHANGHAI, published 2025).
Read-outs that look alike come from different tables or passages of the source.

Experiments:
[1] = target: T1, CD200R1a on PathHunter Jurkat CD200R1a signaling cells (Eurofins DiscoverX, 93-1136C19) (human, UniProt Q8TD46 25-348); assay: cell-based or functional assay
T1 sequence: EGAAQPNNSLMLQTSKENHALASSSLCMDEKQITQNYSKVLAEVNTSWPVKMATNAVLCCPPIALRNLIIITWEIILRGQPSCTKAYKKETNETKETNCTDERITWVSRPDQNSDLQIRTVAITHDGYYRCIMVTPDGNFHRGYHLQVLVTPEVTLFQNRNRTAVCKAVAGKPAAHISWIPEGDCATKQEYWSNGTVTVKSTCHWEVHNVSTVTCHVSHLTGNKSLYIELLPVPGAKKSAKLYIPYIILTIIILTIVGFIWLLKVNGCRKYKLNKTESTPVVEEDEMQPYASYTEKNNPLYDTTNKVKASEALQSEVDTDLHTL

[2] = target: T2, human CD200R1 isoform a on CHOK1 cells (CHOK1/hCD200R1a) (human, UniProt Q8TD46 25-348); assay: flow cytometry, CHOK1/hCD200R1a cells (FITC-Mean); table beside the curves, head without unit, x axis Log [Ab] (nM)
T2 construct: also called CHOK1/CD200R1a
T2 sequence: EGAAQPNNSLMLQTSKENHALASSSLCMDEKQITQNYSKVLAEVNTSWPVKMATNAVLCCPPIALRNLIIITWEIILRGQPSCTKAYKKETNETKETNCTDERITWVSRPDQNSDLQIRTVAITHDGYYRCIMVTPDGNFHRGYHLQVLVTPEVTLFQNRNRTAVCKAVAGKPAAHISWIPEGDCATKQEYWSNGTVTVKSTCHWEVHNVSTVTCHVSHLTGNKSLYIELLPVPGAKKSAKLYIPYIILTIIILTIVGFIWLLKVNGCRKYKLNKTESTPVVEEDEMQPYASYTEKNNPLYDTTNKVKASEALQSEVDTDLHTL

[3] = target: T1, CD200R1a on PathHunter Jurkat CD200R1a …; assay: cell-based or functional assay; remark: listed apart in the source

B1: PR007973 (antibody, human IgG1, kappa, V domains shown)
VH: QVQLVESGGGVVQPGRSLRLSCAASGFTFSSYGFHWVRQAPGKGLEWLGIIWSDASNKYYADSVKGRFTISRDNSKNTLYLQMNSLRAEDTAVYYCARDRIVGEGFDYWGQGTLVTVSS
VL: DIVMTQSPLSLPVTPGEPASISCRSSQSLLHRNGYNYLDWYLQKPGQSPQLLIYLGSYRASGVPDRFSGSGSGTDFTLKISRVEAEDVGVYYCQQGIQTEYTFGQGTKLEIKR
notes: PTM variant of PR006839 (human IgG1)
IC50 of the inhibition of CD200-induced PathHunter Jurkat CD200R1a luminescence (CHOK1/hCD200 cells as CD200 source) [1]: 706 pM | EC50 [2]: 338 pM

B2: PR002906 (antibody, V domains shown)
VH: QVQLQESGPGLVKPSETLSLTCTVSGYTITSGYDWSWIRQPPGKGLEWIGYINYGGSTNYKPSLGSRVTISVDTSKNQFSLKLSSVTAADTAVYYCARYNEYKSYIYDWYFDFWGQGTLVTVSS
VL: DIQMTQSPSSLSASVGDRVTITCKASKNIRSYLAWYQQKPGKAPKLLIYSGSTLHSGVPSRFSGSGSGTDFTLTISSLQPEDFATYYCQQHHEYPLTFGQGTKVEIKR
notes: also called recombinant IgG1 antibody of huDX182
EC50 [2]: 436 pM

B3: PR007221 (antibody, human IgG1, kappa)
heavy: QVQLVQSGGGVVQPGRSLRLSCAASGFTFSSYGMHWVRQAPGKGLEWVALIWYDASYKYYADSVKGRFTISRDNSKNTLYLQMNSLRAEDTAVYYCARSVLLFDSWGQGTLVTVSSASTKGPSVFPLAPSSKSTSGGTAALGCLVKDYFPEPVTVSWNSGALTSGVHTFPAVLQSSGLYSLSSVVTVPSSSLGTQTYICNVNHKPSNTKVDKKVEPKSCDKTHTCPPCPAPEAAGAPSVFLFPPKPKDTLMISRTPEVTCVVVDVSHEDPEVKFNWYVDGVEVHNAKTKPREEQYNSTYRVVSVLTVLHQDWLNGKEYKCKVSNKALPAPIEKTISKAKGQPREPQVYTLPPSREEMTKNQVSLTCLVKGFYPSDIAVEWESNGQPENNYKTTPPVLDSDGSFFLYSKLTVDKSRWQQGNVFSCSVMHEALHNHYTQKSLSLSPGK
light: DIQLTQSPPSLSASVGDRVTITCRASQSISSYLNWFQQKAGKAPKLLISATSNLQSGVPSRFSGSGSGTDFTLTISSLQPEDLATYYCQQTLSSPYTFGQGTKVEIKRTVAAPSVFIFPPSDEQLKSGTASVVCLLNNFYPREAKVQWKVDNALQSGNSQESVTEQDSKDSTYSLSSTLTLSKADYEKHKVYACEVTHQGLSSPVTKSFNRGEC
notes: PTM variant of PR006895 (human IgG1)
IC50 of the inhibition of CD200-induced PathHunter Jurkat CD200R1a luminescence (CHOK1/hCD200 cells as CD200 source) [3]: 1270 pM
